Test results: article PMC4008586 (PLoS ONE, 2014)
Residue numbers refer to the chain shown, from its start.

Biological target: Bim-BH3 peptide
Experiment: SPR; Biacore assay; who was immobilised and the conditions are not stated
Settings: both partners purified

B1: hMcl-1(171–327), wild type (domain or fragment, human, UniProt Q07820 171-327, looked up)
chain: EDELYRQSLEIISRYLREQATGAKDTKPMGRSGATSRKALETLRRVGDGVQRNHETAFQGMLRKLDIKNEDDVKSLSRVMIHVFSDGVTNWGRIVTLISFGAFVAKHLKTINQESCIEPLAESITDVLVRTKRDWLVKQRGWDGFVEFFHVEDLEGG
notes: also called myeloid cell leukemia-1
B1 showed a Kd of ~60 pM.

B2: hMcl-1(171–327) Cys 286 → Ser (domain or fragment, human, UniProt Q07820 171-327, looked up)
chain: B1 chain with C116S
notes: seven nonnative residues LHHHHHH at the C-terminus; The NMR samples were uniformly 13C,15N-labeled (or U-15N, 5% 13C); also called mutant; mutant Cys 286 → Ser
B2 showed a Kd of ~60 pM.
